In patent US20220363740A1 (Sanofi, published 2022):
Like-named read-outs stand apart in the source and are kept apart here. Values belong to the molecule of their own block, whether it stands above or below them.

Assays:
[1] = biological target: Human TGFβ1 (human) (UniProt P01137); assay: SPR (Biacore), apparent KD, 105 RU TGFβ1 immobilized on the chip
[2] = biological target: Human TGFβ1 (human) (UniProt P01137); assay: SPR (Biacore), apparent KD, 24 RU TGFβ1 immobilized on the chip
[3] = biological target: Human TGFβ1 (human) (UniProt P01137); assay: SPR (Biacore), apparent KD, 544 RU TGFβ1 immobilized on the chip
[4] = biological target: T1, Human TGFβ1 (human, UniProt P01137 279-390)
T1 sequence (P01137 279-390 limits assumed): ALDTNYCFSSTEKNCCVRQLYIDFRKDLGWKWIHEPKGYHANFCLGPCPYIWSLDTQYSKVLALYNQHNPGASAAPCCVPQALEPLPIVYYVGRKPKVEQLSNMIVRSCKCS

[5] = biological target: T1, Human TGFβ1; assay: SPR
[6] = biological target: T1, Human TGFβ1; assay: SPR (Biacore), apparent KD, 544 RU TGFβ1 immobilized on the chip
[7] = biological target: T1, Human TGFβ1; assay: SPR (Biacore), apparent KD, 24 RU TGFβ1 immobilized on the chip
[8] = biological target: T1, Human TGFβ1; assay: SPR (Biacore), apparent KD, 105 RU TGFβ1 immobilized on the chip
[9] = biological target: T1, Human TGFβ1; assay: cell-based or functional assay

Human TGFβ1 (human), sequence (P01137 279-390 limits assumed): as above

- Kd [1]: 3.9 nM
- Kd [2]: 4.1 nM
- Kd [3]: 4.8 nM
Molecule: scFv CAT191 diabody (scFv diabody 5aa)

- IC50 (read off the curve), TGFβ1-stimulated IL-11 production (A549 bioassay) [4]: 0.01 nM
Molecule: GC1008 (antibody)

- binding result [5]: binds
B1: Leucine zipper peptide-derived dimer (other)
scFv: EVQLVESGGGVVQPGRSLRLSCAASGFTFSSYGMHWVRQAPGKELEWVAVISYDGSIKYYADSVKGRFTISRDNSKNTLYLQMNSLRAEDTAVYYCARTGEYSGYDTDPQYSWGQGTTVTVSSSGGGSGGGGSGGGGSEIVLTQSPSSLSASVGDRVTITCRSSQGIGDDLGWYQQKPGKAPILLIYGTSTLQSGVPSRFSGSGSGTDFTLTINSLQPEDFATYYCLQDSNYPLTFGGGTRLEIKRAAAHHHHHHGAAEQKLISEEDLNGAAPKPSTPPGSSGELEELLKHLKELLKGPRKGELEELLKHLKELLKGGAPGGHHHHHH
notes: CAT191 scFv fused to tags and a leucine zipper peptide; Expressed in E. coli and only partially purified when tested

- Kd [6]: 1.3 nM
- Kd [7]: 1.7 nM
- Kd [8]: 1.6 nM
- IC50 (read off the curve), TGFβ1-stimulated IL-11 production (A549 bioassay) [9]: ~0.4 nM
B2: CAT191(scFv) (scFv)
scFv: EVQLVESGGGVVQPGRSLRLSCAASGFTFSSYGMHWVRQAPGKELEWVAVISYDGSIKYYADSVKGRFTISRDNSKNTLYLQMNSLRAEDTAVYYCARTGEYSGYDTDPQYSWGQGTTVTVSSSGGGSGGGGSGGGGSEIVLTQSPSSLSASVGDRVTITCRSSQGIGDDLGWYQQKPGKAPILLIYGTSTLQSGVPSRFSGSGSGTDFTLTINSLQPEDFATYYCLQDSNYPLTFGGGTRLEIK
notes: Parental scFv; also called scFv(CAT191)
